Experimental data as given in paper PMC8056888 (Journal of Applied Glycoscience, 2017).

B1: Agl1 (Aspergillus oryzae RIB40) (protein)
chain: MATPGNQNHRAWWKESSVYQIWPCSFKDSNDDGIGDIPGIISKLDHIKNLGIDIVWLCPSYKSPQVDMGYDIADYYDIAPEYGTVADVEKLIKGCHERGMKLLMDLVVNHTSDQHEWFKQSRSSKDNEYRNWYIWKPARYDEQGNRQPPNNWVSHFQGSAWEWDEHTQEYYLHLYATEQPDLNWEHPPVRKAVHDIMRFWLDKGANGFRMDVINFISKDQRFPDAPIKDPRTPWQWGDKYYANGPRLHEYFQELGKILKEYDTFSVGEMPFVTDTEEVLRAVKYDRNELNMIFNFEHVDIDHGKYDKFEPGSWELTDLKFFFERWQKFMYENDGWNALYWENHDQPRSVDRYTNAKEEDRVIASKMLATILALKAGSPFVYQGQEIGMGNVPPEWDIEEYKDIDCLNHWKRLPNDPEIQKIARQEYQKKSRDNGRTPVQWTNAPNAGFTSPNVKPWMSVNPNYARGINAEAQVNDPNSTYSYWASVLGLRKKYVDIFVYGNYELVDRDSQEIFAYTRQYEDQKALVLANWTDGTLEWDSSSNGVKAVKDVLLNTYDSASDVKERFSGSKWSLRPYEAVVLLIEA
B2: AgdC (Aspergillus niger CBS 513.88) (protein)
chain: MAKSASQIHRAWWKECSVYQIWPASYKDSNDDGIGDIPGIISKLDYIKNIGVDIVWLCPSYKSPQVDMGYDIADYYSIADEYGTVADVEKLIQGCHERGMKLLMDLVVNHTSDQNEWFKQSRSSKDNKYRNWYVWKPARYDEQGNRHPPNNWVSHFQGSAWEWDEHTGEYYLHLYATEQPDLNWEHPPVRKAVHDIMRFWLDKGADGFRMDVINFISKDQRFPDAPVKDPRTPWQWGDKYYANGPRLHEYLQDLGKILKEYDAFSVGEMPFVRDTEEVLRAVRYDRNEINMIFNFEHVDIDHGTYDKFEPGSWKLTDLKAFFETWQKFMYNNDGWNALYWENHDQPRSIDRYAQAKEEFRTEAGKMLATVLALQSGTPFVYQGQEIGMRNVPVEWDMNEYKDIDCLNHWHRLLKHRPDDIEAQKSARQEYQKKSRDNGRTPVQWSSAPNGGFTGPNAKPWMSVSPDYVRFNAEAQVNDPNSIYHYWAAVLGLRKKYLDIFVYGDYDLVDKDSQEIFAYARQYENKKALVLTNWTEKTLEWDATTNGVKGVKDVLLNSYESAEAAKGRFSGQKWSLRPYEAVVLLVEA

Assays:
Foagl1 = conditions: conditions not stated for this substrate
purified protein [1] = substrate: CO[C@H]1O[C@H](CO)[C@@H](O)[C@H](O)[C@H]1O; test: purified protein; conditions: conditions not stated for this substrate
purified protein [2] = substrate: O=[N+]([O-])c1ccc(O[C@H]2O[C@H](CO)[C@@H](O)[C@H](O)[C@H]2O)cc1; test: purified protein; conditions: pH 6.0, sodium phosphate, 30 °C

Molecule | Km (Foagl1) [mM] | Km (purified protein [1]) [mM] | Km (purified protein [2]) [mM] | kcat (purified protein [2]) [s⁻¹] | kcat/Km (purified protein [2]) [M⁻¹ s⁻¹] | kcat (purified protein [1]) [s⁻¹]
CO[C@H]1O[C@H](CO)[C@@H](O)[C@H](O)[C@H]1O [α-MG] | 24.3 | – | – | – | – | –
B1 | – | 31.3 | 8.3 | 17.5 | 2120 | –
B2 | – | 32.8 | 7.8 | 19.8 | – | 5.0
